Laboratory results published in publication PMC7466717, “PPARγ Transcription Deficiency Exacerbates High-Fat Diet-Induced Adipocyte Hypertrophy and Insulin Resistance in Mice” (Frontiers in Pharmacology, 2020).
Ends that are not written are not given here.

T1: H6-PPARγ CDE wild-type (human PPARγ, domains from DBD to the C-terminus, residues 103–477) (human, UniProt P37231-2 103-477)
T1 construct: Human PPARγ, CDE domains (DBD, hinge, LBD to the C-terminus), residues 103-477; a C-terminus at 477 fits the 477-residue PPARγ1 isoform; Expressed from pET24a as an N-terminal 6xHis fusion; also called H6-PPARγ CDE WT; PPARγ CDE WT; source: E. coli BL21(DE3), purified (Ni HiTrap HP, SP-Sepharose); not shown: His6, N-terminal, kept
T1 sequence (looked up): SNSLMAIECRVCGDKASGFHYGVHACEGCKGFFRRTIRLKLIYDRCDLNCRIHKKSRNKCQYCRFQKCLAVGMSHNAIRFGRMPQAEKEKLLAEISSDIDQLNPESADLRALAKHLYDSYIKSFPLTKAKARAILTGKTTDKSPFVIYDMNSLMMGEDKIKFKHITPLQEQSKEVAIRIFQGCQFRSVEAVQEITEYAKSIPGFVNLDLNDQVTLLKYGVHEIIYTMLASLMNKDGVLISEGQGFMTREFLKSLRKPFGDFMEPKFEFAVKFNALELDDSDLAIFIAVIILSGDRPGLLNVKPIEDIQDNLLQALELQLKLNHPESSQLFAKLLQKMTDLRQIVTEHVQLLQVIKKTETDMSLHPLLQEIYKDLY

B1: biotin-labeled SRC1-2 coactivator peptide (peptide)
peptide: SPSSHSSLTERHKILHRLLQEGSP
modifications: also: biotin label, position not given here
B2: biotin-labeled SRC2-3 coactivator peptide (peptide)
peptide: QEPVSPKKKENALLRYLLDKDDTKD
modifications: also: biotin label, position not given here
B3: biotin-labeled NCoR-2 corepressor peptide (peptide)
peptide: GHSFADPASNLGLEDIIRKALMGSF
modifications: also: biotin label, position not given here
notes: not the gene NCOR2/SMRT

target: T1, H6-PPARγ CDE wild-type (human PPARγ, …); assay: AlphaScreen or HTRF; 100 nM H6-PPARγ CDE, 100 nM biotin-labeled peptide, gradient doses of rosiglitazone; hexahistidine detection kit (Perkin-Elmer); 50 mmol/L MOPS, 50 mmol/L NaF, 0.05 mmol/L CHAPS, 0.1 mg/ml bovine serum albumin, pH 7.4; conditions: both partners purified

binding result	Binder
binds	B1
binds	B2
binds	B3
